# Assay results published in the supplement of paper PMC10065799, “High-throughput profiling of sequence recognition by tyrosine kinases and SH2 domains using bacterial peptide display” (eLife, 2023).
# Target: SHP2-C SH2
# Experiment: SH2 binding enrichment of the phosphorylated peptide, bacterial display (enrichment ratio); higher = better substrate or ligand; peptides without Tyr show the background
# 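For SH2 binding enrichment of the phosphorylated peptide, bacterial display in this document: peptide library displayed on the E. coli surface as eCPX fusions, selected cells deep-sequenced, score is each peptide's frequency after selection divided by its frequency in the input.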
# 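For phosphorylation enrichment, bacterial display in this document: 11-residue human phosphosite peptides and single-mutation variants displayed on the E. coli surface, counted by deep sequencing, each peptide's frequency after selection divided by its frequency in the unselected input library; frequency after pTyr selection over input frequency; kinase dosed for 20-30% of maximal phosphorylation in three min.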
row,Sequence,SH2 binding enrichment
1,FKDFFYCWNTS [AICDA_Y146_F151S_YF],0.689
2,YKTPTYPYLLP [PLD2_Y578],0.521
3,LNNIIYRLERA [CUX2_Y1470_V1472L],1.84
4,MCVKSYTIHYS [F5_Y2153_Y2149C],0.592
5,GGPAGYLWRAS [PKLR_Y38_R40W],0.729
6,NHYKIYNLCAE [PTEN_Y68],0.826
7,IIWDSYTTNEM [GNB4_Y85_K89E],0.752
8,GRSTYYWPSPR [GAGE12J_Y10_R13S],0.923
9,KEELDYLKKNH [KRT14_Y248_A247D],0.682
10,QFLMKYVWSAP [ABCD1_Y337_S342P],0.653
11,AVLSLYASGRT [ACTA1_Y145],0.731
12,PSQRCYVFFFS [PTEN_Y174_R173C_YF],1.11
13,PTFENYANSTQ [SLC12A3_Y70_H69N_YF],0.369
14,TPGPNYCPGYN [USH2A_Y463_R464C],0.501
15,KIITDYYVDMK [MPP4_Y566_V562I],0.82
16,DKHGQYLIGHG [EPHB4_Y581],0.565
17,IDAVCYYRMEN [NPHS2_Y194_I192V],0.49

# Other lines, results leading:
row,SH2 binding enrichment,Sequence
1,1.2,KHVMPYAANKN [GRIN2A_Y1431_E1426K]
2,0.497,DISEPYKVFRI [IRF8_Y107_YF]
3,0.561,EARRVYGDIIH [ALDH5A1_Y175]
4,0.97,YLAATYPTVGQ [NF1_Y2508]
5,0.512,LHNLSYQLEAE [PKP2_Y616]
6,0.538,IGHHAYGDQYR [IDH1_Y135_R132H]
7,0.498,FNDSTYNQQLI [ZPLD1_Y198_YF]
8,0.746,FFHKFYNKSED [RYR1_Y4864_R4861H]
9,0.569,SDVSSYLEGQV [GCG_Y110_A115V]
10,0.787,DVELLYPLKEK [EPHX1_Y283_V285L]
11,0.69,TINPIYEHVGF [CHN1_Y143_YF]
12,0.945,LRFDSYWSFCN [SLC20A2_Y433_S434W_YF]
13,0.58,RAMPVYKEAEH [TP63_Y231_K233E]
14,1.39,RYVYYYSYLLK [PTEN_Y178]
15,1.49,AELVPYYMEHH [PTPN11_Y80_Q79P]
16,0.919,ADLVQYYMEHH [PTPN11_Y80_E76D]

# Target: c-Src SH2
# Experiment: as above
row,Sequence,SH2 binding enrichment
1,FKDFFYCWNTS [AICDA_Y146_F151S_YF],0.59
2,YKTPTYPYLLP [PLD2_Y578],1.68
3,LNNIIYRLERA [CUX2_Y1470_V1472L],0.557
4,MCVKSYTIHYS [F5_Y2153_Y2149C],0.472
5,GGPAGYLWRAS [PKLR_Y38_R40W],0.594
6,NHYKIYNLCAE [PTEN_Y68],1.2
7,IIWDSYTTNEM [GNB4_Y85_K89E],0.739
8,GRSTYYWPSPR [GAGE12J_Y10_R13S],0.898
9,KEELDYLKKNH [KRT14_Y248_A247D],0.425
10,QFLMKYVWSAP [ABCD1_Y337_S342P],0.595
11,AVLSLYASGRT [ACTA1_Y145],0.555
12,PSQRCYVFFFS [PTEN_Y174_R173C_YF],0.705
13,PTFENYANSTQ [SLC12A3_Y70_H69N_YF],0.787
14,TPGPNYCPGYN [USH2A_Y463_R464C],0.937
15,KIITDYYVDMK [MPP4_Y566_V562I],3.04
16,DKHGQYLIGHG [EPHB4_Y581],0.485
17,IDAVCYYRMEN [NPHS2_Y194_I192V],0.421

# Second part, the sequence after the results:
row,SH2 binding enrichment,Sequence
1,0.92,KHVMPYAANKN [GRIN2A_Y1431_E1426K]
2,0.42,DISEPYKVFRI [IRF8_Y107_YF]
3,0.445,EARRVYGDIIH [ALDH5A1_Y175]
4,0.515,YLAATYPTVGQ [NF1_Y2508]
5,0.425,LHNLSYQLEAE [PKP2_Y616]
6,0.629,IGHHAYGDQYR [IDH1_Y135_R132H]
7,0.437,FNDSTYNQQLI [ZPLD1_Y198_YF]
8,0.521,FFHKFYNKSED [RYR1_Y4864_R4861H]
9,0.479,SDVSSYLEGQV [GCG_Y110_A115V]
10,0.448,DVELLYPLKEK [EPHX1_Y283_V285L]
11,0.518,TINPIYEHVGF [CHN1_Y143_YF]
12,0.726,LRFDSYWSFCN [SLC20A2_Y433_S434W_YF]
13,0.508,RAMPVYKEAEH [TP63_Y231_K233E]
14,0.857,RYVYYYSYLLK [PTEN_Y178]
15,1.19,AELVPYYMEHH [PTPN11_Y80_Q79P]
16,0.714,ADLVQYYMEHH [PTPN11_Y80_E76D]

# Target: Grb2 SH2 (UniProt P62993)
# Experiment: as above
row,Sequence,SH2 binding enrichment
1,FKDFFYCWNTS [AICDA_Y146_F151S_YF],0.815
2,YKTPTYPYLLP [PLD2_Y578],1.04
3,LNNIIYRLERA [CUX2_Y1470_V1472L],1.62
4,MCVKSYTIHYS [F5_Y2153_Y2149C],0.811
5,GGPAGYLWRAS [PKLR_Y38_R40W],0.981
6,NHYKIYNLCAE [PTEN_Y68],0.941
7,IIWDSYTTNEM [GNB4_Y85_K89E],0.896
8,GRSTYYWPSPR [GAGE12J_Y10_R13S],1.12
9,KEELDYLKKNH [KRT14_Y248_A247D],0.742
10,QFLMKYVWSAP [ABCD1_Y337_S342P],0.941
11,AVLSLYASGRT [ACTA1_Y145],0.971
12,PSQRCYVFFFS [PTEN_Y174_R173C_YF],1.2
13,PTFENYANSTQ [SLC12A3_Y70_H69N_YF],1.62
14,TPGPNYCPGYN [USH2A_Y463_R464C],1.68
15,KIITDYYVDMK [MPP4_Y566_V562I],0.861
16,DKHGQYLIGHG [EPHB4_Y581],0.905
17,IDAVCYYRMEN [NPHS2_Y194_I192V],0.661

# Second part, the sequence after the results:
row,SH2 binding enrichment,Sequence
1,1.03,KHVMPYAANKN [GRIN2A_Y1431_E1426K]
2,0.826,DISEPYKVFRI [IRF8_Y107_YF]
3,0.977,EARRVYGDIIH [ALDH5A1_Y175]
4,0.796,YLAATYPTVGQ [NF1_Y2508]
5,0.917,LHNLSYQLEAE [PKP2_Y616]
6,0.724,IGHHAYGDQYR [IDH1_Y135_R132H]
7,0.852,FNDSTYNQQLI [ZPLD1_Y198_YF]
8,0.741,FFHKFYNKSED [RYR1_Y4864_R4861H]
9,0.81,SDVSSYLEGQV [GCG_Y110_A115V]
10,0.893,DVELLYPLKEK [EPHX1_Y283_V285L]
11,0.83,TINPIYEHVGF [CHN1_Y143_YF]
12,1.01,LRFDSYWSFCN [SLC20A2_Y433_S434W_YF]
13,0.98,RAMPVYKEAEH [TP63_Y231_K233E]
14,1.09,RYVYYYSYLLK [PTEN_Y178]
15,0.963,AELVPYYMEHH [PTPN11_Y80_Q79P]
16,0.796,ADLVQYYMEHH [PTPN11_Y80_E76D]

# Target: Jak2 (UniProt O60674)
# Experiment: phosphorylation enrichment, bacterial display (enrichment ratio); higher = better substrate or ligand; peptides without Tyr show the background
# Jak2, sequence (O60674 whole entry, looked up): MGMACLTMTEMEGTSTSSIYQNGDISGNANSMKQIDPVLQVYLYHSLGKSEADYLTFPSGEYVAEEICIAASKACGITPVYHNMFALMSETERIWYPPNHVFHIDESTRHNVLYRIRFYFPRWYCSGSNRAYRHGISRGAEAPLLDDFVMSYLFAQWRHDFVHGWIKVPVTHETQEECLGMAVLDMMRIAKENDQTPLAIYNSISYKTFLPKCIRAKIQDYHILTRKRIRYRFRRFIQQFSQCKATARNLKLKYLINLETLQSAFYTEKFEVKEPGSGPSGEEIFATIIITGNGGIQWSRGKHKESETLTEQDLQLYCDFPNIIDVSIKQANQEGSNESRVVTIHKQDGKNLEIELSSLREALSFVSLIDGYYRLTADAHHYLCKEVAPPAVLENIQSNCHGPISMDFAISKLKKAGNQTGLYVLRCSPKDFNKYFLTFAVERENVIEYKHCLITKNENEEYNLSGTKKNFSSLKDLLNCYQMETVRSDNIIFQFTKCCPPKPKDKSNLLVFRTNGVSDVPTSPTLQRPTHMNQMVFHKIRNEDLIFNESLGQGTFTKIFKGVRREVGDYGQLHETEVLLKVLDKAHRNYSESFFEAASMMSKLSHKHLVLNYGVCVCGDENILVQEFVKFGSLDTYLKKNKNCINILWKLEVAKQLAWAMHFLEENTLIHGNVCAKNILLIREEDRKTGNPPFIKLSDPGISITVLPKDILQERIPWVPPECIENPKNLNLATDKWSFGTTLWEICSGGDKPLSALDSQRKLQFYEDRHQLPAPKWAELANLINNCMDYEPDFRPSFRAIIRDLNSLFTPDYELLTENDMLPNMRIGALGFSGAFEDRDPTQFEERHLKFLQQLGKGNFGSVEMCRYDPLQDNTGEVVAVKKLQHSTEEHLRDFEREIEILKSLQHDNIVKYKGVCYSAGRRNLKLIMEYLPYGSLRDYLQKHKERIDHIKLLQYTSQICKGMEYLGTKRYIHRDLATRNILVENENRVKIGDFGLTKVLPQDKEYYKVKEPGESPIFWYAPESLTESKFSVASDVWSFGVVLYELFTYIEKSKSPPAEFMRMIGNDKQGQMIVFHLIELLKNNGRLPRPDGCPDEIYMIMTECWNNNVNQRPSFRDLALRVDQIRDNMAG
row,Sequence,phosphorylation enrichment
1,FKDFFYCWNTS [AICDA_Y146_F151S_YF],1.42
2,YKTPTYPYLLP [PLD2_Y578],0.92
3,KHVMPYAANKN [GRIN2A_Y1431_E1426K],0.443
4,DISEPYKVFRI [IRF8_Y107_YF],0.78
5,LNNIIYRLERA [CUX2_Y1470_V1472L],1.27
6,MCVKSYTIHYS [F5_Y2153_Y2149C],0.942
7,GGPAGYLWRAS [PKLR_Y38_R40W],0.601
8,EARRVYGDIIH [ALDH5A1_Y175],0.517
9,YLAATYPTVGQ [NF1_Y2508],1.08
10,LHNLSYQLEAE [PKP2_Y616],1.37
11,NHYKIYNLCAE [PTEN_Y68],0.493
12,IIWDSYTTNEM [GNB4_Y85_K89E],1.39
13,GRSTYYWPSPR [GAGE12J_Y10_R13S],7.45
14,KEELDYLKKNH [KRT14_Y248_A247D],0.879
15,IGHHAYGDQYR [IDH1_Y135_R132H],0.448
16,QFLMKYVWSAP [ABCD1_Y337_S342P],1.34
17,FNDSTYNQQLI [ZPLD1_Y198_YF],0.863

row,Sequence,phosphorylation enrichment
1,AVLSLYASGRT [ACTA1_Y145],1.04
2,PSQRCYVFFFS [PTEN_Y174_R173C_YF],1.24
3,FFHKFYNKSED [RYR1_Y4864_R4861H],1.09
4,PTFENYANSTQ [SLC12A3_Y70_H69N_YF],0.895
5,TPGPNYCPGYN [USH2A_Y463_R464C],0.853
6,KIITDYYVDMK [MPP4_Y566_V562I],1.22
7,SDVSSYLEGQV [GCG_Y110_A115V],1.09
8,DVELLYPLKEK [EPHX1_Y283_V285L],0.866
9,DKHGQYLIGHG [EPHB4_Y581],0.599
10,IDAVCYYRMEN [NPHS2_Y194_I192V],4.36
11,TINPIYEHVGF [CHN1_Y143_YF],1.18
12,LRFDSYWSFCN [SLC20A2_Y433_S434W_YF],1.49
13,RAMPVYKEAEH [TP63_Y231_K233E],0.832
14,RYVYYYSYLLK [PTEN_Y178],2.76
15,AELVPYYMEHH [PTPN11_Y80_Q79P],0.757
16,ADLVQYYMEHH [PTPN11_Y80_E76D],0.914
